The record followed here is PMC11463350.

The term Kd denotes the concentration at which binding is half-saturated.

This data set addresses T1, zPol θ (zebrafish DNA polymerase theta, polymerase domain) (Danio rerio (zebrafish), UniProt F1Q4P4 1798-2576).
T1 sequence: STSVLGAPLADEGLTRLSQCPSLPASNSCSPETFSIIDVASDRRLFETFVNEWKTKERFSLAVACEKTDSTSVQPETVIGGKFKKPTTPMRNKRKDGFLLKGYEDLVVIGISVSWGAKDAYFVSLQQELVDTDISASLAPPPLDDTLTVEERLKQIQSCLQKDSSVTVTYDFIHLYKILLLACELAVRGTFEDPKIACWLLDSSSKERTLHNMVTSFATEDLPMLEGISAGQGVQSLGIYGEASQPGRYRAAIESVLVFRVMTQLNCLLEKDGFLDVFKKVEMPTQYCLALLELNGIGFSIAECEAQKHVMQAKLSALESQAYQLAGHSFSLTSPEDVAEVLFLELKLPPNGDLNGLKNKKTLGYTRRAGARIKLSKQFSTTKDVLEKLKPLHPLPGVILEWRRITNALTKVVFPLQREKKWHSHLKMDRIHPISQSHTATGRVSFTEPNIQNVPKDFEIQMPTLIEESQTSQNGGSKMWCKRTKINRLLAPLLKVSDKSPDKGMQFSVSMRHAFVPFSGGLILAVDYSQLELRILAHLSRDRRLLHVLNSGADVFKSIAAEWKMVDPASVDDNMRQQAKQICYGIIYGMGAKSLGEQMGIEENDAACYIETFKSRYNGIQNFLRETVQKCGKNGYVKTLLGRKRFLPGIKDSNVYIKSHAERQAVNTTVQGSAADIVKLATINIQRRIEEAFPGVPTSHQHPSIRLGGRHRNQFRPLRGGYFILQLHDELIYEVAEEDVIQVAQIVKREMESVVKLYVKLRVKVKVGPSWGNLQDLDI
The data set can be described thus: EMSA. For orientation: In EMSA bound probe runs differently from free probe, usually more slowly.

B1: 25/40 undamaged DNA substrate (dsDNA)
DNA 1: TTTGCCTTGACCATGTAACAGAGAG
DNA 2: TCTCTTCTCTCACTCACGCTCTCTGTTACATGGTCAAGGC
Turning to B1, the Kd was roughly 19.8 nM.
